Experimental data: patent publication US10059748B2, “Pharmaceutical compositions for prevention or treatment of neurodegenerative diseases” (INSERM (INSTITUT NATIONAL DE LA SANTÉ ET DE LA RECHERCHE …, priority 2014, dated 2018)

B1: X protein: 87 amino acid X protein of Borna Disease Virus, expressed from a lentiviral vector (LV-X) (protein)
chain: MSSDLRLTLLELVRRLNGNATIESGRLPGGRRRSPDTTTGTVGVTKTTEDPKECIDPTGRPAPEGPQEEPLHDLRPRPANRKGAAIE
modifications: Borna disease virus

Legend:
primary cortical neurons [1] = test: Kinetics of neuronal death (pyknotic nuclei, TOPRO-3) after rotenone in microfluidic cultures; assay type: cell-based, rat; details: somatic application of rotenone
Experimental: 12 day-old neuronal cultures were subjected to oxidative stress by adding the respiratory chain complex I inhibitors rotenone (1 μM, diluted in DMEM containing 1 g/L glucose (Invitrogen), supplemented with 2 mM glutamine+1% penicillin/streptomycin+2% B-27+1% N2 supplements (Invitrogen)) or MPP+(1-methyl-4-phenylpyridinium, 10 μM in complete neuronal culture medium). The microtubule inhibitor colchicine (10 μM, complete neuronal culture medium) was used as a non-mitochondrial stress control. Toxins were added in the somatic or axonal chambers for respectively, somatic or axonal stress.
Neurons in the microfluidic cultures were fixed for 40 min at room temperature with PBS containing 4% paraformaldehyde (PFA), permeabilized using PBS+0.1% Triton-X100 during 20 min, rinsed with PBS, and blocked for 2 h with PBS+2.5% normal goat serum+3% BSA (blocking buffer). […] Fluorescence-based analyses and measurements were performed on either Zeiss LSM-510 or Zeiss LSM-710 inverted confocal microscopes with a 40× objective (63× objective for the analysis of mitochondrial network morphology and quantification of pDrp1 (S616) immunoreactivity). Immuno fluorescence analyses of Drp1 were performed using anti-pDrp1 (S616) (Cell Signaling Technologies, diluted 1:1000). Quantification of fluorescence intensities was performed using the threshold-based fluorescence quantification module of ImageJ software. […]

primary cortical neurons [2] = test: Axonal fragmentation in microfluidic primary neuron cultures after toxin treatment; assay type: cell-based, rat; details: neurons transduced with lentiviral vectors; rotenone in axonal chamber 16 h
Experimental: Primary cortical neurons were prepared from Sprague-Dawley rat embryos at gestational day 17. After dissection, cortex tissue was dissociated by a 15 min incubation at 37° C. in PBS containing 10 U/ml Papain (Worthington), followed by a gentle dissociation in PBS containing 1.5 mg/ml bovine serum albumin (BSA) and 1.5 mg/ml Trypsin inhibitor (from chicken egg, Sigma-Aldrich). After centrifugation through a 4% BSA cushion, neurons were plated on culture dishes coated with 0.5 mg/ml Poly-DL-Ornithine (PO, overnight, Sigma-Aldrich) and 5 mg/ml Laminin (2 h, Roche). Neuronal cultures were maintained in complete neuronal culture medium composed of serum-free Neurobasal (Gibco) supplemented with 2 mM L-Glutamine, 100 μg/ml penicillin/streptomycin (Gibco) and 2% B-27 supplement (Gibco). […]
The analysis of axonal degeneration was performed both by phase contrast observation and after immunostaining of axonal βIII-tubulin (Sigma-Aldrich). […] For each microfluidic culture, the total βIII-tubulin staining area was measured on 4 randomly selected pictures taken in the axonal chamber (MetaMorph software analysis, fixed thresholds). Then, the number of tubulin spots of fragmented axons was manually counted (Imaris software, Spot counting for “clicking” records) and the ratio between the number of spots and the total staining area was defined as a fragmentation index. […]

[3] = test system: nigrostriatal dopaminergic (DA) neurons; test: MPTP intoxication mouse model of PD, TH immunodetection in striatum and SNpc; assay type: in vivo; details: lentiviral vector, stereotaxic injection in SNpc two weeks before MPTP
Experimental: Peptides covering the N-terminal (PX1, aa 1-30), middle (PX2, aa 29-59) or C-terminal (PX3, aa 59-87) parts of BDV X protein (GenBank: ABW81015.1) coupled to the MPP sequence were synthesized to >95% (in vitro studies) or >99% (in vivo studies) purity (Génosphère). For in vitro experiments, neurons were grown for 12 days before replacing the medium by fresh complete neuronal culture medium containing 5 μM of the peptides. The cultures were maintained 90 min at 37° C., 5% CO2 before any treatment or analysis to ensure peptide penetration into neuronal mitochondria. For intra-cerebroventricular delivery, peptides were injected as described below. For intranasal peptide delivery, 10 μl drops of peptide solution (1 mM solution in saline: H2O+0.9% NaCl) were placed onto the mice nostrils daily from the day before to the 3rd day after MPTP intoxication. […]
For immunohistochemical staining, free-floating brain sections were first quenched for 5 min in 20% (v/v) methanol and 1% (v/v) hydrogen peroxide diluted in PBS, then blocked for 30 min in a 4% solution of BSA diluted in PBS-0.3% Triton-X100 and incubated overnight at 4° C. with a primary antibody directed against tyrosine hydroxylase (1:500 dilution, US biological). […] TH-positive neurons were quantified stereologically on regularly spaced sections covering the whole Substantia Nigra pars compacta (SNpc). […]

[4] = test system: mitochondrial network of primary neurons; test: Analysis of mitochondrial network morphology (Tom20 staining); assay type: cell-based, rat
Experimental: Primary cortical neurons were prepared from Sprague-Dawley rat embryos at gestational day 17. After dissection, cortex tissue was dissociated by a 15 min incubation at 37° C. in PBS containing 10 U/ml Papain (Worthington), followed by a gentle dissociation in PBS containing 1.5 mg/ml bovine serum albumin (BSA) and 1.5 mg/ml Trypsin inhibitor (from chicken egg, Sigma-Aldrich). After centrifugation through a 4% BSA cushion, neurons were plated on culture dishes coated with 0.5 mg/ml Poly-DL-Ornithine (PO, overnight, Sigma-Aldrich) and 5 mg/ml Laminin (2 h, Roche). Neuronal cultures were maintained in complete neuronal culture medium composed of serum-free Neurobasal (Gibco) supplemented with 2 mM L-Glutamine, 100 μg/ml penicillin/streptomycin (Gibco) and 2% B-27 supplement (Gibco).
Neurons were grown for 9 days at low density on 12 mm diameter glass coverslips placed in 24-well plates (5×10^4 cells per well). Transduction with lentiviral vectors was performed on day 3, whereas peptide was added to the medium on day 9. Neurons were left untreated or subjected to rotenone treatment (5 to 100 nM for 2 h, diluted in PBS), rinsed, fixed and directly stained for neuronal marker (βIII-tubulin) and mitochondria (Tom20, Santa Cruz Biotech.). Confocal pictures were taken and blinded to the investigator before image analysis. The sizes of mitochondria in all neuronal extensions of randomly selected neurons were determined using ImageJ software and mitochondria were classified in size categories (ranging from <2 μm to >8 μm). Each category was expressed as percentages relative to the size of the total mitochondrial network for a given neuron.

[5] = test system: Drp1 (S616) phosphorylation; test: Immunofluorescence quantification of phospho-Drp1 (S616); assay type: cell-based, rat
Experimental: Neurons in the microfluidic cultures were fixed for 40 min at room temperature with PBS containing 4% paraformaldehyde (PFA), permeabilized using PBS+0.1% Triton-X100 during 20 min, rinsed with PBS, and blocked for 2 h with PBS+2.5% normal goat serum+3% BSA (blocking buffer). Incubation for at least 2 h at room temperature with primary antibodies diluted in blocking buffer was followed, after extensive washes in PBS, by 1 h incubation at room temperature with fluorescently-conjugated secondary antibodies diluted in PBS. For TOPRO3 staining, somatic chambers were incubated with TOPRO3 (1:1000 in PBS; Invitrogen) for 10 min and then rinsed twice in PBS. All incubation and washes were reduced by 50% for neurons grown in standard coverslips. Fluorescence-based analyses and measurements were performed on either Zeiss LSM-510 or Zeiss LSM-710 inverted confocal microscopes with a 40× objective (63× objective for the analysis of mitochondrial network morphology and quantification of pDrp1 (S616) immunoreactivity). Immuno fluorescence analyses of Drp1 were performed using anti-pDrp1 (S616) (Cell Signaling Technologies, diluted 1:1000). Quantification of fluorescence intensities was performed using the threshold-based fluorescence quantification module of ImageJ software. All data were normalized on βIII-tubulin staining.

[6] = test system: mitochondrial membrane potential (ΔΨm) of primary neurons; test: Mitochondrial membrane potential analysis (JC-1); assay type: cell-based, rat; details: LV-transduced neurons, no stress
Experimental: Axons were stained with JC-1 dye (2 μM in PBS; LifeTechnologies) as described by the manufacturer. Briefly, JC-1 was added to the culture medium for 45 min at 37° C., 5% CO2, washed twice with PBS and analyzed by confocal microscopy using 488 nm excitation together with 530 nm and 585 nm band pass emission filters, whilst maintaining the cells at 37° C. and 5% CO2. Total fluorescence intensity was measured for each emission band pass with fixed thresholds and ratios between “red” (585 nm: active mitochondria) and “green” (530 nm: total mitochondria network) were determined for each culture (means of 4 randomly chosen pictures for each microfluidic culture).

[7] = test system: ROS production in primary neurons; test: ROS production measurement (c-H2DCFDA); assay type: cell-based, rat; details: LV-transduced neurons, no stress
Experimental: The culture medium was removed from the axonal or somatic chambers and replaced by pre-warmed PBS containing carboxy-2′,7′-dichlorodihydrofluorescein diacetate (c-H2DCFDA, 5 μM in PBS; LifeTechnologies) for 45 min at 37° C., 5% CO2. After 2 washes in PBS, cultures were returned to warm culture medium for 30 min. Cells were fixed and the integrative fluorescence was measured on 3 randomly selected fields for each axonal chamber. Tert-butyl hydroperoxide (TBHP, LifeTechnologies) was used as a positive control of ROS detection. ROS amounts were detected by fluorescence (excitation/emission: 495/529 nm) and quantified by measuring integrative emission signal intensities for each culture (mean of 4 randomly taken pictures in the case of microfluidic cultures using Zeiss LSM 510 confocal; signal intensity of the whole culture for traditional cultures, using a VarioSkan Flash fluorescence reader (Thermo Electron)).

[8] = test system: oxygen consumption rates of primary neurons; test: Mitochondrial respiration measurements (Seahorse XF24 OCR); assay type: cell-based, rat; details: LV-transduced neurons, no stress
Experimental: Real-time measurements of oxygen consumption rates (OCR) were performed using a Seahorse XF24 extracellular flux analyzer (Seahorse Bioscience). Neurons were seeded and grown for 9 days in Seahorse XF24-wells plates (3×10^4 cells/well). Transduction with lentiviral vectors was performed on the 3rd day after seeding. Before measurements, the culture medium was replaced by warm respiration medium: DMEM without phenol red supplemented with 10 mM glucose, 2 mM L-Glutamine and 2 mM Pyruvate (Gibco) (the pH of the final culture medium was adjusted to 7.4). Following three 2-minute baseline measurements of OCR (3 minute-rest between each measure), mitochondrial complex inhibitors were sequentially injected into each well. Three OCR readings were taken after addition of each inhibitor and before automated injection of the subsequent inhibitor. Mitochondrial complex inhibitors, in order of injection, were Oligomycin (2 μM) to inhibit complex V (i.e., ATP synthase), FCCP (20 μM) to uncouple the proton gradient, Rotenone (2.0 μM), to inhibit complex I and Antimycin (2.0 μM), to inhibit complex III. OCR values were automatically calculated, recorded, and plotted by the Seahorse XF24 software.

OPA1, Mfn1/2, Fis1, Drp1 = test: Expression and recruitment of mitochondrial fission/fusion actors; assay type: cell-based; details: X-expressing cells

Molecule | time to cell death (primary cortical neurons [1]) [h] | protection against rotenone-induced axonal fragmentation (primary cortical neurons [2]) | ipsilateral TH-positive neurons in the SNpc after MPTP [3] | ipsilateral striatal fibers (TH) after MPTP [3] | rotenone-induced mitochondrial fission ([4]; after rotenone) | weighted mean size of mitochondria ([4]; after rotenone-induced oxidative stress (10 nM rotenone 2 h)) [μm] | decrease of short, fragmented mitochondria (<2 μm) ([4]; steady state) [%] | weighted mean size of mitochondria ([4]; steady state, without rotenone) [μm] | enhanced Drp1 phosphorylation after treatment with rotenone ([5]; after rotenone) | phosphorylation of Drp1 on serine-616 ([5]; steady state) | impact on ΔΨm at steady-state [6] | impact on ROS production at steady-state [7] | impact on respiration at steady-state [8] | expression levels of OPA1, Mfn1/2, Fis1, Drp1 vs control cells (OPA1, Mfn1/2, Fis1, Drp1) | recruitment of Drp1 to the mitochondria vs control cells (OPA1, Mfn1/2, Fis1, Drp1)
C=C(C)[C@H]1Cc2c(ccc3c2O[C@@H]2COc4cc(OC)c(OC)cc4[C@@H]2C3=O)O1 [rotenone] | < 4 | – | – | – | – | – | – | – | – | – | – | – | – | – | –
B1 | – | same level of axonal protection as infection with BDV | almost complete protection | preservation | significantly reduced | 4.54 | 60 | 5.22 | selectively reduced | severely reduced | no impact | no impact | no impact | did not find any significant difference | no difference
